Measurements reported in the nanobody polyreactivity screen of Harvey et al. (2022).

Assay: yeast display, Sf9 membrane polyspecificity reagent, FACS + sequencing; frameworks hold sequencing errors
Method in brief: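 Genes from sorted yeast were amplified by colony PCR, read by MiSeq 2 × 250 sequencing and filtered on CDR length. These cells carried a synthetic nanobody library in Saccharomyces cerevisiae BJ5465 and were sorted by FACS into low and high (top ~1%) gates on anti-HA and streptavidin fluorescence. Polyreactivity is labelled according to the gate of origin.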

Row | Sequence | polyreactivity (PSR sort gate)
1 | QVQLVESGGGLVQAGGSLRLSCAASVRTFGQNTMGWYIQAPGKEREFVAAIDFNGGSTYYADSVKGRFTISRDNAKNTVYLQMNSLKPEDTAVYYCAADIYFYYYGSYDYWGQGTQVTVSS | low polyreactivity
2 | QVQLVESGGGLVQAGGSLRLSCAASVSIFQVYAMGWYRQAPGKERELVAAITWSAGSTYADSVKGRFTISRDNAKNTVYLQMNSLKPEDTAVYYSAAYPYVGYVSFSAYDYWGQGTQVTVSS | low polyreactivity
3 | QVQLVESGGGLVQAGGSLRLSCAASVSIFRKNAMGWYRQAPGKERELVAAITYRTGSTYYADSVKGRFTISRDNAKNTVYLQMNSLKPEDTAVYYCAAQTWGSGYGHIGRRRHDYWGQGTQVTVSS | high polyreactivity
4 | QVQLVESGGGLVQAGGSLRLSCAASVSIFYEYTMGWYRQAPGKERELVADITEGDGITYYADSVKGRFTISRDNAKNTVYLQMNSLKPEDTAVYYCNADVVQAVTTHYDYWGQGTQVTVSS | low polyreactivity
5 | QVQLVESGGGLVQAGGSLRLSCAASVSTFRTNAMGWYRQPPGKEREMVAAITLDGGSTYYADSVKGRFTISRDNEKNTVYLQMNSLKPEDTAVYYCAADVVSVVYLPFVNGGDYWGQGTQVTVSS | low polyreactivity
6 | QVQLVESGGGLVQAGGSLRLSCAASVSTFRWYAMGWYRQAPGKERELVAAISWSGSTTYYADSVKGRFTISRDNAKNTVYLQMNSLKPEDTAVYYCAAEVVFFGWNYDYWGQGTQVTVSS | high polyreactivity
7 | QVQLVESGGGLVQAGGSLRLSCAASVSTFVVNAMGWYRQAPGKERELVAAISRSDAITYYADSVKGRFTISRDNAKNTVYLQMNSLKPEDTAVYYCAAELSYRGYPYDYWGQGTQVTVSS | high polyreactivity
8 | QVQLVESGGGLVQAGGSLRLSCAASVTIFGDYTMGWYRQAPGKERELVAAITWSAGRTYYADSVKGRFTISRDNAKNTVYLQMNSLKPEDTAVYYCAAQVPEDTETVDYWGQGTQVTVSS | low polyreactivity
9 | QVQLVESGGGLVQAGGSLRLSCAASVYGMGWYRQAPGKERELVAAISNGGTTYYADSEKGRFTISRDNAKNTVYLQMNSLKPEDTAVYYCADRSWPGGFIYYYWGQGTQVTVSS | low polyreactivity
10 | QVQLVESGGGLVQAGGSLRLSCAASVYTFYWNAMGWYRQAPGKEREFVASFSGTSTYYADSVKGRFTISRDNAKNTVYLQMNSLKPEDTAVYYCNARLTLGPRKYEYWGQGTQVTVSS | low polyreactivity
11 | QVQLVESGGGLVQAGGSLRLSCAASVYTIGLYAMGCYRQAPGKEMELVAAMSWSGGSTYYADSVKGPFTISRDNAKKTVYLQMNSLKPEDTAVYYCAAVPYFSLEMGYWGQGTQVTVSS | low polyreactivity
12 | QVQLVESGGGLVQAGGSLRLSCAASYYAMGWYRQAPAKERELVASISSGGSTNYADSVKGRFTISRDNAKNTVFFQMNSLKPEDTAVYYCAADVADGVWVKIADEYWGQGTQVTVSS | low polyreactivity
13 | QVQLVESGGGLVQAGGSLRLSCAATARIFVRYAMGWYRQAPGKERELVAAISTSGGRTYYADSVKGRFTISRDNAKNTVYLQMNSLKPEDTAVYYCNARIKRPRGVYGGDYWGQGTQVTVSS | high polyreactivity
14 | QVQLVESGGGLVQAGGSLRLSCAATGFIFGYYALGGYRQAPGKERELVAAINKNGGSTYYADSVKGRFTISRDNAKNTVYLQMNSLKPEDTAVYYCAARARGYAWTYDYWGQGTQVTVSS | high polyreactivity
15 | QVQLVESGGGLVQAGGSLRLSCAATGITFYPNDMGWYRQAPGKERELVAAITTNDGDTYYADSVKGRFTISRDNAKNTVYLQMNSLKPEDTAVYYCAADSGSTSEYEYWGQGTQVTVSS | low polyreactivity
16 | QVQLVESGGGLVQAGGSLRLSCAATGLIFSRNAMGWYRQAPGKERELVAAISTGGSTYYADSVKGRFTISRDNAKITVYLQMNSLKPEDTAVYYCAAAPGYIYEYWGQGTQVTVSS | low polyreactivity
17 | QVQLVESGGGLVQAGGSLRLSCAATGLIIPFSAMGWDREPPGKDRDLVAAISWSAGSTYYADSVKGRFTISRDNAKNSVYLHMNSLKPEDTAVYYCATDRNPADFYWGQGTQVTVSS | low polyreactivity
18 | QVQLVESGGGLVQAGGSLRLSCAATGNTFLWYARGWYRQAPGKERELVAAITWSGGRTYYADSVKGRFTISRDNALYTVYLQMHSLKPEDTAVYYFAADYGYFLGGVYFHKVKFDYWGQGTQVTVSS | high polyreactivity
19 | QVQLVESGGGLVQAGGSLRLSCAATGRIFQRNAMGWYRQAPGKERELVAVISKSGGSTYYADSVKGRFTISRDNAKNTVYLQMNSLKPEDTAVYYCATRYFRPGEKYDYWGQGTQVTVSS | low polyreactivity
20 | QVQLVESGGGLVQAGGSLRLSCAATGRTFRIYAMGWYRQAPGKEREFVAAITWSGGRTYYADSVKGRFTISRDNAKNTVYLQMNSLKPEDTAVYYCAADPTYLRTLRFGSYDYWGQGTQVTVSS | high polyreactivity
21 | QVQLVESGGGLVQAGGSLRLSCAATGRTFRPYAMGWYTQAPGKEREMVDAIDSSGTSTYYADSVKGRFTISRDNAKKTVYLQMNSQKPEDTAVYYCAKAWPDHWYSRYDYWGQGTQVTVSS | low polyreactivity

Row | Sequence | polyreactivity (PSR sort gate)
22 | QVQLVESGGGLVQAGGSLRLSCAATGRTFSTYAMGWYRQAPGKERELVAAISSGGGRTYYADSVKGRFTISRDNAKNTVYLQMNSLKPEDTAVYYCAADFLWYIYIIGTSLEFDYWGQGTQVTVSS | low polyreactivity
23 | QVQLVESGGGLVQAGGSLRLSCAATGSIFASYAMGWYRQAPGKERELVASITRVDSTNYADSVKGRFTISRDNAKNTVYLQMNSLKPEDTAVYYCAADYYIVLTKSDGLFGSWGQGTQVTVSS | low polyreactivity
24 | QVQLVESGGGLVQAGGSLRLSCAATGSIFDYNAMGWYTQAPGKERELVAALTSGGSTNYADSVKGRFTISRDNAMNTVYLQMNSLKPEDTAVYYCAADHDYYPSNLDYWGQGTQVTVSS | low polyreactivity
25 | QVQLVESGGGLVQAGGSLRLSCAATGSIFYAYAMGWYRQAPGKERELVAGISGGGSTNYADSVKGRFTISRDNAKNTVYLQMNSLKPEDTAVYYCAADGWLSATYDGLPDSDSWGQGTQVTVSS | high polyreactivity
26 | QVQLVESGGGLVQAGGSLRLSCAATGSIFYQNAMGWYRQAPGKDRELVAAISSRGGRTYYADSVKGRFTISRDNAKNTVYLQMNSLKTEDTAVYYFNAARFPYSKDYDYWGQGNQVTVSS | high polyreactivity
27 | QVQLVESGGGLVQAGGSLRLSCAATGSNFGSNAMGWYRQAPGKEMELVAAITESGGDTYYADSVKGRFTISRDNAKNTVYLQMNSLKPEDSAVFYCAARYFGGIVDVSLFREYGSWGQGTQVTVSS | low polyreactivity
28 | QVQLVESGGGLVQAGGSLRLSCAATGSTFASYAMGWYIQAPGKERELVAAITNGGSTNYADSVKGRFTISRDNAKNNVYLQMNSLNPEDTAVYYCAAYDGFPRRYDYWGQGTQVTVSS | low polyreactivity
29 | QVQLVESGGGLVQAGGSLRLSCAATGSTFGYYAMGWYRQSPGKERELVAAISRSGTSTYYADSVKGRFTISRDNAKNTVYLQMISLKPEDTAVYYCIRYGFNSQDYWGQGTQVTVSS | high polyreactivity
30 | QVQLVESGGGLVQAGGSLRLSCAATGSTFWPYAMGWYRQAPGKERELVAAIRVIGGSTYYADSVKGRFTISRDNAKNTVYLQMNSLKPEDTAVYYCNAYRPGGARFYARYRYDYCGQGTQVTVSS | low polyreactivity
31 | QVQLVESGGGLVQAGGSLRLSCAATGSTFWQYVMGWYRQAPGKERELVAAISYSGGSTYYADSVKGRFTISRDNAKNTVYLQMNSLKPEDTAVYYCATRGYRWSVFDYWGQGTQVTVSS | high polyreactivity
32 | QVQLVESGGGLVQAGGSLRLSCAATGTTFGYYTMGWYRQAPGKERELDAAISWSGSSTYYADSVKGRFTISRDTAKNTVYLQMNSLKPEDTAVYYCNARGGARAWYFAYKYWGQGTQVTVSS | high polyreactivity
33 | QVQLVESGGGLVQAGGSLRLSCAATRSIFSLYTMGWYRQAPGKERELVAVISSAGRTYYADSVKGRFTISRDNGKNTVYLQMNSLKPEDTAVYYCARLTGQRTQTRSDYWGQGTQVTVSS | high polyreactivity
34 | QVQLVESGGGLVQAGGSLRLSCAAYGFTFTRKAMGWYRQAPGKERELVAAISGSGGSTYYADSVKGRYTISRDNAKNTVYLQMNSLKPADTAVYYCAKDGWWRKYDYWGQGTQVTVSS | high polyreactivity
35 | QVQLVESGGGLVQAGGSLRLSCAAYGFTIRRYAMGWSIQAPGKERELVAAITWSAGSTYYADSVKGRFTISRDNAKYTVYLQMNSLKPEDTAVYYCAARCKRWGADSGYYWGNGTQVTVSS | high polyreactivity
36 | QVQLVESGGGLVQAGGSLRLSCAAYGGIFKQYALGCYRQAPGKERELVAANTWSGGSTYYADSVKGRFTISRDNAKNTVYLQMNSLKPEDTAVYYCAKDYVLFQYVDFQDDDYWGQGTQVTVSS | low polyreactivity
37 | QVQLVESGGGLVQAGGSLRLSCAAYGHIFFYYTMGWYRQAPGKERELVAAITIGGSTNYADSVKGRFTISRDYAKNTVYLQMNSLKPEDTAVYYCNVVKYVYIYSYWEYYYWGHGTQVTVSS | low polyreactivity
38 | QVQLVESGGGLVQAGGSLRLSCAAYGITFGANAMGWYRQAPGKERELVADITWSGGDTYYADSVKGRFTISRDNAKYTVYLQMTSLIPEDTAVYYCNALQPGLGSPLGEYDFWGQGTQVTVSS | low polyreactivity
39 | QVQLVESGGGLVQAGGSLRLSCAAYGITFTPNAMGWYRQAPGKEREFVAAITYSGGSTYYADSVKGRFTISRDNAKNTVYLQMNSLKPEDTAVYYCAAVYYLLYYEAYYYWGQGTQVTVSS | low polyreactivity
40 | QVQLVESGGGLVQAGGSLRLSCAAYGLIFAISAMGWYRQAPGKERELVAAIRWSGASTYADSVKGRFTISRDNAKNTVYLQMNSLKTEDTAVYYCAADDLLHYDYWGQGTQVTVSS | low polyreactivity
41 | QVQLVESGGGLVQAGGSLRLSCAAYGLIFGHYAMGWYRQEPGKERELVAAITTRGSSTYYADSVKGRFTISRDNAKNTVYLQMNSLKPEDTAVYYCNAKLVYGTTYKFDNWGQGTQVTVSS | high polyreactivity
